One block for each molecule: values may come before it.
Columns and labels:
[1] = pharmacokinetics in cynomolgus monkeys; format: in vivo, cynomolgus monkey; details: initial administration 10 mg/kg
activin B [2] = molecular target: T1, activin B (Homo sapiens, UniProt P09529); experiment: similar binding assay (Biacore); details: CHO-cell-expressed material
T1 sequence (P09529 293-407): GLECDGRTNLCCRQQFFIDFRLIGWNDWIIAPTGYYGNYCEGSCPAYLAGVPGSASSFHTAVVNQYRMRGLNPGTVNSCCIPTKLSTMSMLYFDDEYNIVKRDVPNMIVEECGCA

[3] = pharmacokinetic studies in rats; format: in vivo, rat; details: initial administration 30 mg/kg
Experimental: The ActRIIA-hFc was very stable in pharmacokinetic studies. Rats were dosed with 1 mg/kg, 3 mg/kg, or 10 mg/kg of ActRIIA-hFc protein, and plasma levels of the protein were measured at 24, 48, 72, 144 and 168 hours. In a separate study, rats were dosed at 1 mg/kg, 10 mg/kg, or 30 mg/kg.

BMP10 [4] = molecular target: T2, BMP10 (Homo sapiens, UniProt O95393); experiment: Biacore ligand affinity (Example 10); format: binding; details: Smad 1/5/8 ligand
T2 sequence (O95393 317-424): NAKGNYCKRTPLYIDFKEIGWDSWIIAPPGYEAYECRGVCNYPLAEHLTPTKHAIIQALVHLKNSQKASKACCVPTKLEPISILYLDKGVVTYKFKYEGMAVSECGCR
Experimental: (§1) The affinity of GDF traps and other ActRIIB-hFc proteins for several ligands was evaluated in vitro with a Biacore™ instrument. Kd values were obtained by steady-state affinity fit due to the very rapid association and dissociation of the complex, which prevented accurate determination of kon and koff.

GDF8 [5] = molecular target: T3, GDF8 (Homo sapiens, UniProt O14793); experiment: Biacore ligand affinity (Example 10); format: binding; details: Smad 2/3 signaling ligand
T3 sequence (O14793 267-375): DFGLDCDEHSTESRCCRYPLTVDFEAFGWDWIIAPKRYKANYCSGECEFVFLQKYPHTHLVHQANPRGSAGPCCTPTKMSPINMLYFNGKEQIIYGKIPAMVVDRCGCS
Experimental: as §1

BMP6 [6] = molecular target: T4, BMP6 (Homo sapiens, UniProt P22004); experiment: Biacore ligand affinity (Example 10); format: binding; details: Smad 1/5/8 ligand
T4 sequence (P22004 375-513): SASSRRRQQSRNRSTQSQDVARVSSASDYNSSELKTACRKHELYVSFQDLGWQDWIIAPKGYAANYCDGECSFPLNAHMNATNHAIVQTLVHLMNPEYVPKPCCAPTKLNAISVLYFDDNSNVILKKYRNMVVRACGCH
Experimental: as §1

GDF8 [7] = molecular target: T3, GDF8; experiment: A-204 reporter gene assay, pGL3(CAGA)12 luciferase; format: cell-based; parameters: host or cells: exogenous factor added to A-204 cells (human rhabdomyosarcoma)
Source text: (§2) Day 1: Split A-204 cells into 48-well plate. […]
(§3) In addition, an A-204 Reporter Gene Assay was used to evaluate the effects of ALK4-Fc:ActRIIB-Fc heterodimer and ActRIIB-Fc:ActRIIB-Fc homodimer on signaling by activin A, activin B, GDF11, GDF8, BMP10, and BMP9. Cell line: Human Rhabdomyosarcoma (derived from muscle). Reporter vector: pGL3(CAGA)12 (as described in Dennler et al, 1998, EMBO 17: 3091-3100). The CAGA12 motif is present in TGFβ responsive genes (PAI-1 gene), so this vector is of general use for factors signaling through Smad2 and 3. An exemplary A-204 Reporter Gene Assay is outlined below. • Day 1: Split A-204 cells into 48-well plate. • Day 2: A-204 cells transfected with 10 ug pGL3(CAGA)12 or pGL3(CAGA)12(10 ug)+pRLCMV (1 ug) and Fugene. • Day 3: Add factors (diluted into medium+0.1% BSA). Inhibitors need to be pre-incubated with Factors for about one hr before adding to cells. About six hrs later, cells are rinsed with PBS and then lysed.
(§4) Following the above steps, a Luciferase assay was performed.

BMP10 [8] = molecular target: T2, BMP10; experiment: Biacore-based binding assay, receptor captured with anti-Fc antibody
Experimental: (§5) A Biacore™-based binding assay was used to compare ligand binding selectivity of the ALK4-Fc:ActRIIB-Fc heterodimeric complex described above with that of ActRIIB-Fc and ALK4-Fc homodimer complexes. The ALK4-Fc:ActRIIB-Fc heterodimer, ActRIIB-Fc homodimer, and ALK4-Fc homodimer were independently captured onto the system using an anti-Fc antibody. Ligands were injected and allowed to flow over the captured receptor protein. Results are summarized in the table below, in which ligand off-rates (kd) most indicative of effective ligand traps are denoted in bold font.

activin A [9] = molecular target: T5, activin A (Homo sapiens, UniProt P08476); experiment: as above
T5 sequence (P08476 311-426): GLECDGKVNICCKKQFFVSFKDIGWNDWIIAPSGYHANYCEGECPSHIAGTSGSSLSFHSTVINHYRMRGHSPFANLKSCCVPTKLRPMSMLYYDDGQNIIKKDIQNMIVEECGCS
Experimental: as §5

activin B [10] = molecular target: T1, activin B; experiment: as above
Experimental: as §5

BMP9 = molecular target: T6, BMP9 (Homo sapiens, UniProt Q9UK05); experiment: as above
T6 sequence (Q9UK05 320-429): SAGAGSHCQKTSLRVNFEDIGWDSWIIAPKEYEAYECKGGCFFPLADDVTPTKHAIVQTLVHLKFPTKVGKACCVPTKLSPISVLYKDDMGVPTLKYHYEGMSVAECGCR
Experimental: as §5

GDF8 [11] = molecular target: T3, GDF8; experiment: as above
Experimental: as §5

GDF3 = molecular target: T7, GDF3 (Homo sapiens, UniProt Q9NR23); experiment: as above
T7 sequence (Q9NR23 251-364): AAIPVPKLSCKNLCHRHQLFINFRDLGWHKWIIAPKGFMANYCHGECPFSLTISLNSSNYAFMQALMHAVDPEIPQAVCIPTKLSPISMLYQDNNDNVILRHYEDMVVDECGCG
Experimental: as §5

BMP6 [12] = molecular target: T4, BMP6; experiment: as above
Experimental: as §5

GDF11 [13] = molecular target: T8, GDF11 (Homo sapiens, UniProt O95390); experiment: as above
T8 sequence (O95390 299-407): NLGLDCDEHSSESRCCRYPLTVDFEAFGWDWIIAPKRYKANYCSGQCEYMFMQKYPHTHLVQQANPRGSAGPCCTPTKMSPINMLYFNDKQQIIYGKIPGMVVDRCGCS
Experimental: as §5

activin B [14] = molecular target: T1, activin B; experiment: A-204 reporter gene assay, pGL3(CAGA)12 luciferase; format: cell-based; parameters: host or cells: exogenous factor added to A-204 cells (human rhabdomyosarcoma); details: Example 13
Source text: as §3, §4

GDF11 [15] = molecular target: T8, GDF11; experiment: A-204 reporter gene assay, pGL3(CAGA)12 luciferase; format: cell-based
Source text: as §2, §3, §4

activin A [16] = molecular target: T5, activin A; experiment: A-204 reporter gene assay, pGL3(CAGA)12 luciferase; format: cell-based
Source text: An A-204 reporter gene assay was used to evaluate the effects of ActRIIB-Fc proteins and GDF traps on signaling by GDF-11 and activin A. Cell line: human rhabdomyosarcoma (derived from muscle). Reporter vector: pGL3(CAGA)12 (described in Dennler et al, 1998, EMBO 17: 3091-3100). The CAGA12 motif is present in TGF-beta responsive genes (e.g., PAI-1 gene), so this vector is of general use for factors signaling through SMAD2 and 3.
Day 1: Split A-204 cells into 48-well plate.
Day 2: A-204 cells transfected with 10 ug pGL3(CAGA)12 or pGL3(CAGA)12(10 ug)+pRLCMV (1 μg) and Fugene.
Day 3: Add factors (diluted into medium+0.1% BSA). Inhibitors need to be preincubated with factors for 1 hr before adding to cells. Six hrs later, cells were rinsed with PBS and lysed.
This is followed by a luciferase assay.
as §3, §4

activin [17] = details: see U.S. Pat. No. 7,842,663; cited from earlier work
GDF11 [18] = molecular target: T8, GDF11; details: see U.S. Pat. No. 7,842,663; cited from earlier work
activin [19] = experiment: ActRIIB-Fc affinity for ligand (description); format: binding; details: ascertained by Applicants
GDF11 [20] = molecular target: T8, GDF11; experiment: ActRIIB-Fc affinity for ligand (description); format: binding; details: ascertained by Applicants
activin A [21] = molecular target: T5, activin A; experiment: Biacore assay, receptor captured with anti-hFc antibody; format: binding
Experimental: (§6) Binding of certain ActRIIB-Fc proteins and GDF traps to ligands was tested in a Biacore assay.
(§7) The ActRIIB-Fc variants or wild-type protein were captured onto the system using an anti-hFc antibody. Ligands were injected and flowed over the captured receptor proteins.

GDF8 [22] = molecular target: T3, GDF8; experiment: as above; format: binding
Experimental: as §6, §7

GDF11 [23] = molecular target: T8, GDF11; experiment: as above; format: binding
Experimental: as §6, §7

Molecule: ActRIIA-hFc: extracellular domain of human ActRIIa fused to a human Fc domain with a minimal linker (SEQ ID NO: 32); homodimer
circulating levels of the drug [1]: 30 µg/mL
affinity for activin B ligand compared with that reported for ActRIIa-hFc expressed in human 293 cells (activin B [2]): higher affinity
circulating levels of the drug after two weeks [3]: 30 µg/mL

B2: ActRIIB(20-119)-Fc: ActRIIB-Fc fusion protein containing amino acids 20-119 of SEQ ID NO: 1 (protein)
chain: GRGEAETRECIYYNANWELERTNQSGLERCEGEQDKRLHCYASWRNSSGTIELVKKGCWLDDFNCYDRQECVATEENPQVYFCCCEGNFCNERFTHLPEA
modifications: Fc fusion, Fc no entry
binding to activin relative to ActRIIB(20-134)-Fc (activin [17]): reduced binding
binding to GDF11 relative to ActRIIB(20-134)-Fc (GDF11 [18]): reduced binding

B3: ActRIIB(20-134)-hFc: extracellular domain of human ActRIIB (20-134, R64) fused to a human Fc domain with a minimal linker (SEQ ID NO: 40) (protein)
chain: GRGEAETRECIYYNANWELERTNQSGLERCEGEQDKRLHCYASWRNSSGTIELVKKGCWLDDFNCYDRQECVATEENPQVYFCCCEGNFCNERFTHLPEAGGPEVTYEPPPTAPTGGGTHTCPPCPAPELLGGPSVFLFPPKPKDTLMISRTPEVTCVVVDVSHEDPEVKFNWYVDGVEVHNAKTKPREEQYNSTYRVVSVLTVLHQDWLNGKEYKCKVSNKALPVPIEKTISKAKGQPREPQVYTLPPSREEMTKNQVSLTCLVKGFYPSDIAVEWESNGQPENNYKTTPPVLDSDGSFFLYSKLTVDKSRWQQGNVFSCSVMHEALHNHYTQKSLSLSPGK
affinity for activin (activin [19]): low nanomolar to high picomolar range
affinity for GDF11 (GDF11 [20]): low nanomolar to high picomolar range
inhibition of GDF-8 activity (GDF8 [7]; A-204 reporter gene assay): potent inhibitor
inhibition of GDF-11 activity (GDF11 [15]; A-204 reporter gene assay): potent inhibitor
Koff, Activin A (activin A [21]): 0.000159 s⁻¹
Kon, Activin A (activin A [21]): 5.94e+06 M⁻¹ s⁻¹
Koff, GDF8 (GDF8 [22]): 3.45e-05 s⁻¹
Koff, GDF11 (GDF11 [23]): 0.000113 s⁻¹
inhibition of activin A activity (activin A [16]; A-204 reporter gene assay): potent inhibitor

The next lines start with the values.

binding to BMP10 (BMP10 [4]): strong to intermediate binding
binding to GDF8 (GDF8 [5]): strong to intermediate binding
binding to BMP6 (BMP6 [6]): strong to intermediate binding
Molecule: ActRIIB(L79D 25-131)-hFc: GDF trap with truncated ActRIIB extracellular domain (residues 25-131, L79D) fused to human Fc (SEQ ID NO: 78)

inhibition of GDF8 signaling (GDF8 [7]; Example 13): potent inhibitors
Kd (BMP10 [8]): 0.011 nM
ka, BMP10 (BMP10 [8]): 2.3e+07 M⁻¹ s⁻¹
kd, BMP10 (BMP10 [8]): 0.00026 s⁻¹
ka, Activin A (activin A [9]): 1.2e+07 M⁻¹ s⁻¹
kd, Activin A (activin A [9]): 0.00023 s⁻¹
ka, Activin B (activin B [10]): 5.1e+06 M⁻¹ s⁻¹
kd, Activin B (activin B [10]): 0.0001 s⁻¹
Kd (BMP9): 0.077 nM
ka, BMP9 (BMP9): 1.4e+07 M⁻¹ s⁻¹
kd, BMP9 (BMP9): 0.0011 s⁻¹
ka, GDF8 (GDF8 [11]): 830000 M⁻¹ s⁻¹
kd, GDF8 (GDF8 [11]): 0.00023 s⁻¹
Kd (GDF8 [11]; † = very low signal): 0.28 nM
Kd (GDF3): 1.5 nM
ka, GDF3 (GDF3): 1.4e+06 M⁻¹ s⁻¹
kd, GDF3 (GDF3): 0.0022 s⁻¹
ka, BMP6 (BMP6 [12]): 3.2e+07 M⁻¹ s⁻¹
kd, BMP6 (BMP6 [12]): 0.0068 s⁻¹
ka, GDF11 (GDF11 [13]): 5e+07 M⁻¹ s⁻¹
kd, GDF11 (GDF11 [13]): 0.00011 s⁻¹
Kd (GDF11 [13]; † = very low signal): 0.002 nM
inhibition of activin B signaling (activin B [14]): potent inhibitors
inhibition of GDF11 signaling (GDF11 [15]; Example 13): potent inhibitors
inhibition of activin A signaling (activin A [16]; Example 13): potent inhibitors
B1: ActRIIB-Fc homodimer: homodimer complex of ActRIIB-Fc fusion polypeptide (protein)
chain: GRGEAETRECIYYNANWELERTNQSGLERCEGEQDKRLHCYASWRNSSGTIELVKKGCWLDDFNCYDRQECVATEENPQVYFCCCEGNFCNERFTHLPEAGGPEVTYEPPPTAPT
modifications: left off: a dimerising Fc or GST
notes: homodimer complex of ActRIIB-Fc fusion polypeptide

From patent US10973880B2, “Compositions and methods for treating pulmonary hypertension” (Acceleron Pharma Inc., priority 2016, dated 2021)
